We go through 12 molecules from article doi:10.1101/390104 (bioRxiv, 2018).

Usually stoichiometry N stands for the number of molecules, sites or subunits per partner or assembly.

B1: HdeA-82-fluoro (natural protein)
chain: ADAQKAADNKKPVNSFTCEDFLAVDESFQPTAVGFAEALNNKDKPEDAVLDVQGIATVTPAIVQACTQDKQANFKDKVKGEWDKIKKDM
modifications: 5-fluorotryptophan at 82
B2: HdeA-16-fluoro (natural protein)
chain: ADAQKAADNKKPVNSWTCEDFLAVDESFQPTAVGFAEALNNKDKPEDAVLDVQGIATVTPAIVQACTQDKQANFKDKVKGEFDKIKKDM
modifications: 5-fluorotryptophan at 16
B3: HdeA-F28W mutant (natural protein)
chain: ADAQKAADNKKPVNSWTCEDFLAVDESWQPTAVGFAEALNNKDKPEDAVLDVQGIATVTPAIVQACTQDKQANFKDKVKGEWDKIKKDM
B4: wild type HdeA (natural protein, E. coli, UniProt P0AES9 22-110, looked up)
chain: ADAQKAADNKKPVNSWTCEDFLAVDESFQPTAVGFAEALNNKDKPEDAVLDVQGIATVTPAIVQACTQDKQANFKDKVKGEWDKIKKDM
B5: HdeA mutant with 19F probe incorporated at site 28 (natural protein)
chain: ADAQKAADNKKPVNSFTCEDFLAVDESWQPTAVGFAEALNNKDKPEDAVLDVQGIATVTPAIVQACTQDKQANFKDKVKGEFDKIKKDM
modifications: 5-fluorotryptophan at 28
B6: HdeA mutant with 19F probe incorporated at site 35 (natural protein)
chain: ADAQKAADNKKPVNSFTCEDFLAVDESFQPTAVGWAEALNNKDKPEDAVLDVQGIATVTPAIVQACTQDKQANFKDKVKGEFDKIKKDM
modifications: 5-fluorotryptophan at 35
B7: HdeA mutant with 19F probe incorporated at site 55 (natural protein)
chain: ADAQKAADNKKPVNSFTCEDFLAVDESFQPTAVGFAEALNNKDKPEDAVLDVQGWATVTPAIVQACTQDKQANFKDKVKGEFDKIKKDM
modifications: 5-fluorotryptophan at 55
B8: HdeA mutant with 19F probe incorporated at site 78 (natural protein)
chain: ADAQKAADNKKPVNSFTCEDFLAVDESFQPTAVGFAEALNNKDKPEDAVLDVQGIATVTPAIVQACTQDKQANFKDKWKGEFDKIKKDM
modifications: 5-fluorotryptophan at 78
B9: HdeA mutant with 19F probe incorporated at site 24 (natural protein)
chain: ADAQKAADNKKPVNSFTCEDFLAWDESFQPTAVGFAEALNNKDKPEDAVLDVQGIATVTPAIVQACTQDKQANFKDKVKGEFDKIKKDM
modifications: 5-fluorotryptophan at 24
B10: HdeA mutant with 19F probe incorporated at site 49 (natural protein)
chain: ADAQKAADNKKPVNSFTCEDFLAVDESFQPTAVGFAEALNNKDKPEDAWLDVQGIATVTPAIVQACTQDKQANFKDKVKGEFDKIKKDM
modifications: 5-fluorotryptophan at 49
B11: HdeA mutant with 19F probe incorporated at site 7 (natural protein)
chain: ADAQKAWDNKKPVNSFTCEDFLAVDESFQPTAVGFAEALNNKDKPEDAVLDVQGIATVTPAIVQACTQDKQANFKDKVKGEFDKIKKDM
modifications: 5-fluorotryptophan at 7
B12: HdeA mutant with 19F probe incorporated at site 63 (natural protein)
chain: ADAQKAADNKKPVNSFTCEDFLAVDESFQPTAVGFAEALNNKDKPEDAVLDVQGIATVTPAIWQACTQDKQANFKDKVKGEFDKIKKDM
modifications: 5-fluorotryptophan at 63

One series deals with T1, MalE (E. coli, UniProt P0AEX9 27-396 = MBP). The series can be described thus: NMR.
With B1, the binding result is “binds”.
Still for that read-out and setting: as for B2, the entry is “binds”; as for B3, “binds”.

For another series, the target named is T1, MalE. The series can be described thus: ITC. Background: ITC needs no label: the signal is the heat of the interaction.
As for B4, the “stoichiometry N” value is ~0.5.

The next series has as its target T1, MalE. The series can be described thus: 19F NMR.
On to B5, for which the binding result is listed as “binds”.
On to B6, for which the binding result is “binds”.
Turning to B7, the binding result is recorded as “binds”.
For B8, the binding result is listed as “binds”.
On the same count and under the same terms, as for B9, the entry is “binds”; as for B10, “binds”; as for B11, “binds”.
As to B12, the binding result is on record as “binds”.

Another series concerns the molecule itself. The series can be described thus: NMR.
For the molecule B4, the binding result is on record as “binds”.
